Measured values taken from patent US20210018508A1 (PIERRE FABRE MEDICAMENT, published 2021).

Target: T1, recombinant human insulin receptor (human, UniProt P06213-2 28-944, limits assumed)
T1 construct: also called rhIR; human IR
Test: direct ELISA, rhIR coated at 1 µg/ml, hybridoma supernatant, anti-mouse IgG-HRP detection
Procedure: Further characterizations of the 816C12 antibody were then performed using hybridoma supernatant such as rhIGF-1R or rmIGF-1R or rhIR ELISA. In all direct ELISAs, proteins of interest were immobilized (1 μg/ml) to the bottom of each well. After saturation, hybridoma supernatants were added to the wells. After a 1-hour incubation period and a washing step, a solution of goat anti-mouse IgG—HRP labelled polyclonal antibody was used for detection, prior to the addition of the TMB substrate. The reaction was stopped with a 1M […] solution before reading the OD with a spectrophotometer at a 450 nm wavelength.

T1 sequence (P06213 other isoform, or with tags, fused parts or gaps limits assumed): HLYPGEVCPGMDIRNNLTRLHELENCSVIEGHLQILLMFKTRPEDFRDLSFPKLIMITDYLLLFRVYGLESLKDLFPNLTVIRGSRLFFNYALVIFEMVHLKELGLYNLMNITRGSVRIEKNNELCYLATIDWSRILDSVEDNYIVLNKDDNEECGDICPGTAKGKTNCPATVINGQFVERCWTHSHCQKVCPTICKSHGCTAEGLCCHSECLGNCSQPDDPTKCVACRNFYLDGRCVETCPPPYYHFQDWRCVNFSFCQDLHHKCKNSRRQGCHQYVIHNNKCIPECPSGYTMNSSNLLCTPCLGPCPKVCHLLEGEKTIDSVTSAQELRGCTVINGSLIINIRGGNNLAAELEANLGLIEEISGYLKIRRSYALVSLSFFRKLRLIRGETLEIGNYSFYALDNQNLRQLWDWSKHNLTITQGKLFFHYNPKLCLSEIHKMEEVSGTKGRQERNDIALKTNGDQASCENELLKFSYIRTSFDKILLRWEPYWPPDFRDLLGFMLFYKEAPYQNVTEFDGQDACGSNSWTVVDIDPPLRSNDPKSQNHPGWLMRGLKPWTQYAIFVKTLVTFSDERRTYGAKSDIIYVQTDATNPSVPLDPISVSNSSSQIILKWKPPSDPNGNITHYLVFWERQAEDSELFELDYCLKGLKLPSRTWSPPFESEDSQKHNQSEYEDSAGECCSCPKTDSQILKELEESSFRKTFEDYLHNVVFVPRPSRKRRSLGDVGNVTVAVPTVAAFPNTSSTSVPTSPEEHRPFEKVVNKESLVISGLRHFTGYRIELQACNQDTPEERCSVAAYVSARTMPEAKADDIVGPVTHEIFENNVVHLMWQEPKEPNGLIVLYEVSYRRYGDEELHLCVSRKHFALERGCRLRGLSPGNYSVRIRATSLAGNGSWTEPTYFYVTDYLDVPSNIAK

binding result: no binding (tested: 5 µg/ml)
B1: 816C12 anti-IGF-1R monoclonal antibody (antibody, V domains shown)
VH: EVQLQQSGPELVKPGASVKMSCKASGHTFTSYVLHWMKRKPGQGLEWIGYINPHNDVTKYNENFKGKATLTSDKYSSTVYMEVSSLTSEDSAVYYCVSTAYYGNGRYFDVWGAGTTVTVSS
VL: DIQMTQTTSSLSASLGDRVTISCRASQDINNYLNWYQQKPDGTVKLLIYYTSRLHSGVSSRFSGSGSGTDYSLTISNLEQEDIATYFCQQGNTLPWTFGGGTKLEIK
notes: Murine monoclonal antibody from a Balb/C hybridoma; It was used as hybridoma supernatant in the ELISAs and at 5 ug/ml in IHC; also called I-4894; antibody secreted by hybridoma CNCM I-4894
